From article PMC3750625

What was measured:
[1] = target: K104C IN 1–105 (Moloney murine leukemia virus); experiment: SEC; Superdex S-200 of the BMOE-crosslinked reaction mixture of K104C IN 1–105; data not shown
[2] = target: K104C IN 1–105 (Moloney murine leukemia virus); experiment: cross-linking; 50 μM IN 1–105 K104C with 1 mM BMOE (8 Å) or BM(PEG)2 (14.7 Å), 50 mM Tris–HCl pH 7.0, 10 μM ZnSO4, on ice 60 min, quenched with 10 mM DTT; SDS-PAGE
[3] = target: Wild type IN 1–105, the isolated N-terminal domain (NTD) of Moloney murine leukemia virus integrase (Moloney murine leukemia virus) (UniProt P03355); experiment: SEC; Superdex S-200, nondenaturing, 10 mM Tris pH 7.5, 0.5 M NaCl, 1 mM DTT, 5% glycerol; BS3-crosslinked and unmodified IN 1–105 compared
[4] = target: Wild type IN 1–105, the isolated N-terminal domain (NTD) of Moloney murine leukemia virus integrase (Moloney murine leukemia virus) (UniProt P03355); experiment: cross-linking; 56 μM IN 1–105 with 100 μM BS3 (0 to 300 μM tested), 50 mM Hepes pH 7.8, 25°C, 35 min, stopped with 50 mM lysine pH 8.0; SDS-PAGE; monomer and dimer bands digested with trypsin or chymotrypsin and read by LC-MS/MS or MALDI-TOF/TOF

K104C IN 1–105 (domain or fragment) gave a stoichiometry N [1] of 2, a crosslinking extent with BM(PEG)2 [2] of 70% and a crosslinking extent with BMOE [2] of 65%. It also gave a stoichiometry N [2] of 2.
Work on “Wild type IN 1–105, the isolated N-terminal domain (NTD) of Moloney murine leukemia virus integrase (from UniProt P03355 2-106) (domain or fragment)” yielded a percent eluting at the position of the dimer [3] of 95%, a stoichiometry N [3] of 2 and a percent of the protein crosslinked [4] of 50%. For the same substance, the stoichiometry N [4] was 2.
